In US20220226442A1:

Target: IL-2 receptors on the cell surface of human PBMC populations (Tregs, CD25^high T helper cells, NK cells, cytotoxic T cells)
Experiment: cell-based or functional assay

With “IL-2-Fc fusion protein F42K/V69A/Q74P, (G4S)4 linker, IgG1 Fc N297G” the Ratio (CD25^high T helper EC50 / Treg EC50) was 15.9.
“IL-2-Fc fusion protein F42Q/V69A/Q74P, (G4S)4 linker, IgG1 Fc N297G” showed a Ratio (CD25^high T helper EC50 / Treg EC50) of 25.9.
Work on “IL-2-Fc fusion protein K35E/V69A/Q74P, (G4S)4 linker, IgG1 Fc N297G” yielded a Ratio (CD25^high T helper EC50 / Treg EC50) of 300.
“IL-2-Fc fusion protein R38E/V69A/Q74P, (G4S)4 linker, IgG1 Fc N297G” gave a Ratio (CD25^high T helper EC50 / Treg EC50) of 9.
“IL-2-Fc fusion protein R38N/V69A/Q74P, (G4S)4 linker, IgG1 Fc N297G” gave a Ratio (CD25^high T helper EC50 / Treg EC50) of 2820.
In the case of “IL-2-Fc fusion protein R38Q/V69A/Q74P, (G4S)4 linker, IgG1 Fc N297G”, the Ratio (CD25^high T helper EC50 / Treg EC50) is reported as 28.4.
“irrelevant (non-binding) antibody with IL-2 N88D fused to its C-terminus” was tested, and the pSTAT5 EC50, Treg was 0.37 nM and the pSTAT5 Max. Signal, Treg (relative to V69A/Q74P IL-2-Fc) was 0.5.
